Patent US9402900B2, “Methods of modulating adrenomedullin by administering an anti-adrenomedullin (ADM) antibody” (ADRENOMED AG, priority 2011, dated 2016)

Legend:
[1] = biological target: T1, Human ADM 1-52 bioactivity at human recombinant adrenomedullin receptor (CRLR+RAMP3) in CHO-K1 cells (Homo sapiens, UniProt P35318); test: Human recombinant Adrenomedullin receptor cAMP functional assay (Adrenomedullin Bioassay), human ADM as agonist; assay type: cell-based; conditions: in the presence of 5.63 nM Human ADM 1-52; antibody up to 100 μg/ml
T1 construct: comprises the amino acids 95 to 146 of pre-proADM; FAST-027C (receptor cell line); host or cells: CHO-K1 cells transfected with human CRLR+RAMP3
T1 sequence (P35318 95-146): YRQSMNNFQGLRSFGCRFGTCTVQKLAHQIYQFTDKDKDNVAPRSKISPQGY
Description: The effect of selected ADM-antibodies on ADM-bioactivity was tested in an human recombinant Adrenomedullin receptor cAMP functional assay (Adrenomedullin Bioassay).
Testing of Antibodies Targeting Human or Mouse Adrenomedullin in Human Recombinant Adrenomedullin Receptor cAMP Functional Assay (Adrenomedullin Bioassay)
Receptor: Adrenomedullin (CRLR+RAMP3)
Receptor Accession Number Cell line: CRLR: U17473; RAMP3: AJ001016
Dose response curves were performed in parallel with the reference agonists (hADM or mADM).
For antagonist testing, 6 μl of the reference agonist (human (5.63 nM) or mouse (0.67 nM) adrenomedullin) was mixed with 6 μl of the test samples at different antagonist dilutions; or with 6 μl buffer. After incubation for 60 min at room temperature, 12 μl of cells (2,500 cells/well) were added. The plates were incubated for 30 min at room temperature.
The anti-h-ADM antibodies (NT-H, MR-H, CT-H) were tested for antagonist activity in human recombinant adrenomedullin receptor (FAST-027C) cAMP functional assay in the presence of 5.63 nM Human ADM 1-52, at the following final antibody concentrations: 100 μg/ml, 20 μg/ml, 4 μg/ml, 0.8 μg/ml, 0.16 μg/ml.

hADM = biological target: T2, hADM (Homo sapiens, UniProt P35318); test: hADM sandwich luminescence immunoassay, dose/signal curve in presence of antibody; conditions: 100 μg/mL antibody
T2 construct: comprises the amino acids 95 to 146 of pre-proADM; purchased BACHEM AG, Switzerland
T2 sequence (P35318 95-146): T1 sequence (P35318 95-146)
Description: The assay was calibrated, using dilutions of hADM
Unbound tracer was removed by washing 5 times (each 1 ml) with washing solution (20 mM PBS, pH 7.4, 0.1% Triton X-100).
Tube-Bound Chemiluminescence was Measured by Using the LB 953

Maximal inhibition of ADM bioactivity (ADM-Bioassay) (%) [1]: 38%
Effect on the hADM immunoassay (dose/signal curve) (hADM): did not affect
B1: NT-H: mouse monoclonal antibody raised against human ADM region 1-21 (SEQ ID: 15) (antibody, V domains shown)
VH: QVQLQQSGAELMKPGASVKISCKATGYTFSRYWIEWVKQRPGHGLEWIGEILPGSGSTNYNEKFKGKATITADTSSNTAYMQLSSLTSEDSAVYYCTEGYEYDGFDYWGQGTTLTVSS
VL: DVLLSQTPLSLPVSLGDQATISCRSSQSIVYSNGNTYLEWYLQKPGQSPKLLIYRVSNRFSGVPDRFSGSGSGTDFTLKISRVEAEDLGVYYCFQGSHIPYTFGGGTKLEIK
